Data reported in patent publication US20110165143A1, “MODULATION OF CASPASES AND THERAPEUTICAL APPLICATIONS” (The Regents of the University of Colorado, a body corporate, priority 2010, published 2011).
Peptide text beside a SMILES is read from it. * marks the point of attachment. Cbz = O=C(OCc1ccccc1)*; CH2F = FC*

Key:
IMR90 cells = assay: iPSC induction from IMR90 fibroblasts transduced with transcription factor cocktails; format: cell-based, human; conditions: for increase in frequency of OSNL-induced iPSC formation: IMR90 cells; for suppression / reduction in the frequency of iPSC induction: IMR90 cells stably transduced with the agent
Text: The caspase reporters were transduced into human IMR90 fibroblasts via recombinant lentivirus vectors. After puromycin selection to ensure stable integration of the reporters, the iPSC reprogramming process was initiated by infecting caspase reporter-transduced IMR90 cells with recombinant lentivirus vectors carrying 4 transcription factors (Oct-4, Sox2, Nanog, and Lin28, or OSNL in abbreviation) that are known to induce iPSC formation. To avoid the use of myc, which is known to induce caspase activation and might confound the results, the OSNL protocol was chosen because it was shown not to be essential for iPSC induction.
In order to determine whether the observed caspases 3 and 8 activation had any functional relevance in iPSC induction, down-regulation of caspase activities in OSNL-transduced cells was attempted. In the initial experiment, CrmA was we stably transduced through lentiviral vectors, a cow pox virus protein known to suppress caspases 1 and 8 activities, into IMR90 cells. […] This was a very surprising result because logically one would expect that inhibiting caspase activation would lead to increased iPSC generation because of reduced cell death.
Because CrmA inhibits both caspases 1 and 8, more specific approaches were used to determine which caspase was involved. First, a siRNA-based knockdown approach was used. In this approach, lentiviral vectors encoding either caspase 1- or caspase 8-targeted shRNA was used to infect IMR90 cells. After selecting for cells with stable shRNA knockdown (as verified by western blot analysis), they were infected with OSNL lentivector cocktail.
To provide further proof that the cleavage activities of caspases 3 and 8 are necessary for iPSC formation, lentiviral vectors encoding dominant-negative forms of caspases 3 and 8 were constructed. The dominant negative form of human caspase 8 gene (casp8-DN) encodes a virtually identical protein as the wild type except a single amino acid change (i.e. C360A), which disables its catalytic proteolytic function. This dominant negative form was cloned into a recombinant lentiviral vector. Similarly, the dominant negative form of caspase 3 (Casp3-DN), which contains a single mutation (C163A) that disables its proteolytic function, was also cloned into a lentiviral vector.
When IMR90 cells stably transduced with a lentiviral vector encoding casp8-DN were infected with the OSNL lentiviral cocktail, no iPSC induction process was observed.

4T1Fluc cells [1] = assay: Growth of Fluc-labeled tumor cells seeded onto dying feeder cells killed by cytotoxic treatment; format: cell-based, mouse; conditions: dying feeder cells killed by a treatment other than radiation
Fluc-labeled 4T1 cells = assay: In vivo tumor growth from a small number of subcutaneously injected Fluc-labeled 4T1 cells; design: species or system mice; conditions: about 1000 subcutaneously injected Fluc-labeled 4T1 cells
Procedure: Growth of Fluc-labeled tumor cells in vivo was followed through non-invasive bioluminescence imaging using the IVIS200 instrument (Caliper Life Sciences, Hopkinton, Mass.). Mice to be imaged were injected with 150 mg/kg of D-luciferin (obtained from Caliper Life Sciences) intraperitoneally in 200 μl of PBS and then anesthetized with continuous flow of isofluorane. Imaging of the mice was carried out 10 minutes later. The time between injection and imaging was kept constant among different batches of mice.
Different approaches were used to establish tumor growth than traditionally adopted by other studies. In most of the studies, only a very small number of Fluc-labeled tumor cells (500-1000 cells each) were injected either alone or together with other unlabeled cells (either tumor cells or fibroblast cells) that were either irradiated or un-irradiated. Tumor growth in these cells was monitored through the quantification of bioluminescence signals emitted from labeled tumor cells by using the IVIS200 instrument following manufacturer's instructions.
As PGE2 had been implicated as a regulator of tumor growth, its effect on in vivo tumor growth was evaluated from a small number of Fluc-labeled 4T1 cells.

4T1Fluc cells [2] = assay: Growth of 4T1Fluc tumor cells plated with lethally irradiated NIH3T3 cells, bioluminescence imaging; format: cell-based, mouse; conditions: about 1000 4T1Fluc cells plated with lethally irradiated NIH3T3 cells plus inhibitor (FIG. 4)
Procedure: FIG. 4 is a graph showing the effect of a caspase inhibitor z-VAD-fmk on 4T1Fluc tumor cell growth when plated with lethally irradiated NIH3T3 cells. About 1000 4T1Fluc cells were plated either alone, with non-irradiated NIH3T3 cells, or with lethally irradiated NIH3T3 cells plus a pan-caspase inhibitor z-VAD-fmk.
For imaging luciferase, the IVIS200 instrument from Caliper Life Sciences (Hopkinton, Mass.) was used. For tissue cultured cells, luciferase signal was imaged by adding PBS or colorless OptiMEM medium (Invitrogen, Carlsbad, Calif.) with D-luciferin (Caliper Life Sciences, Hopkinton, Mass.) at a concentration of 0.15 mg/ml. The cells were imaged at a set time point (e.g., 10 minutes) after the administration of D-luciferin. This allowed the signals from different samples to be compared. After images were taken, the manufacturer supplied software was used to process the images for quantitative data.
In order to rule out the possibility that caspase 3 mediates its growth-promoting function through a non-proteolytic mechanism, experiments were conducted using a pan-caspase inhibitor z-VAD-fmk to treat irradiated cells. […] A further, more definitive confirmation came from experiments where a dominant-negative version of caspase 3 was stably transduced into 4T1 cells. The dominant-negative caspase 3 (DN-casp3) differs with wild type caspase 3 in only one amino acid (C163A). […]

In the case of “E7: human papilloma virus type 16 E7 protein, known to inhibit Rb function, co-transduced with OSNL”, the “increase in frequency of OSNL-induced iPSC formation” value (IMR90 cells) is reported as roughly 5 fold.

`COc1cc([C@@H]2c3cc4c(cc3[C@@H](O[C@@H]3O[C@@H]5CO[C@@H](C)O[C@H]5[C@H](O)[C@H]3O)[C@H]3COC(=O)[C@H]23)OCO4)cc(OC)c1O` [etoposide] was tested, and the “growth-enhancing function conferred on dying cells by the cytotoxic treatment” value (4T1Fluc cells [1]) was “engender significant growth-enhancing functions to dying cells”.

With `CCCCC[C@H](O)/C=C/[C@H]1[C@H](O)CC(=O)[C@@H]1C/C=C\CCCC(=O)O` [PGE2, prostaglandin E2] the “effect on in vivo tumor growth” value (Fluc-labeled 4T1 cells) was “significantly stimulate tumor growth”.

With `COC(=O)C[C@H](NC(=O)[C@H](C)NC(=O)[C@@H](NC(=O)OCc1ccccc1)C(C)C)C(=O)CF` [z-VAD-fmk] (Cbz-Val-Ala-Asp(OMe)-CH2F) the “effect on growth-promoting properties of irradiated cells towards 4T1Fluc tumor cell growth” value (4T1Fluc cells [2]) was “eliminated the growth-promoting properties of irradiated cells”.

B1: Rb: human Rb gene over-expressed from a lentiviral expression vector (protein, UniProt P06400 2-928, looked up)
Retinoblastoma-associated …: PPKTPRKTAATAAAAAAEPPAPPPPPPPEEDPEQDSGPEDLPLVRLEFEETEEPDFTALCQKLKIPDHVRERAWLTWEKVSSVDGVLGGYIQKKKELWGICIFIAAVDLDEMSFTFTELQKNIEISVHKFFNLLKEIDTSTKVDNAMSRLLKKYDVLFALFSKLERTCELIYLTQPSSSISTEINSALVLKVSWITFLLAKGEVLQMEDDLVISFQLMLCVLDYFIKLSPPMLLKEPYKTAVIPINGSPRTPRRGQNRSARIAKQLENDTRIIEVLCKEHECNIDEVKNVYFKNFIPFMNSLGLVTSNGLPEVENLSKRYEEIYLKNKDLDARLFLDHDKTLQTDSIDSFETQRTPRKSNLDEEVNVIPPHTPVRTVMNTIQQLMMILNSASDQPSENLISYFNNCTVNPKESILKRVKDIGYIFKEKFAKAVGQGCVEIGSQRYKLGVRLYYRVMESMLKSEEERLSIQNFSKLLNDNIFHMSLLACALEVVMATYSRSTSQNLDSGTDLSFPWILNVLNLKAFDFYKVIESFIKAEGNLTREMIKHLERCEHRIMESLAWLSDSPLFDLIKQSKDREGPTDHLESACPLNLPLQNNHTAADMYLSPVRSPKKKGSTTRVNSTANAETQATSAFQTQKPLKSTSLSLFYKKVYRLAYLRLNTLCERLLSEHPELEHIIWTLFQHTLQNEYELMRDRHLDQIMMCSMYGICKVKNIDLKFKIIVTAYKDLPHAVQETFKRVLIKEEEYDSIIVFYNSVFMQRLKTNILQYASTRPPTLSPIPHIPRSPYKFPSSPLRIPGGNIYISPLKSPYKISEGLPTPTKMTPRSRILVSIGESFGTSEKFQKINQMVCNSDRVLKRSAEGSNPPKPLKKLRFDIEGSDEADGSKHLPGESKFQQKLAEMTSTRTRMQKQKMNDSMDTSNKEEK
modifications: lentiviral expression
notes: human Rb gene over-expressed from a lentiviral expression vector
In the case of B1, the “suppression / reduction in the frequency of iPSC induction” value (shortened to “suppression / reduction in the frequency”) (IMR90 cells; OSNL lentiviral cocktail) is reported as “about 50%”.

B2: shRNA targeted to Rb: lentiviral vector-encoded shRNA against human Rb, Open Biosystems (nucleic acid)
DNA: TGCTGTTGACAGTGAGCGCGGATATAGGATACATCTTTAATAGTGAAGCCACAGATGTATTAAAGATGTATCCTATATCCTTGCCTACTGCCTCGGA
modifications: the letters are possibly those of the target site
notes: lentiviral vector-encoded shRNA against human Rb, Open Biosystems
In the case of B2, the “increase in frequency of OSNL-induced iPSC formation” value (IMR90 cells) is reported as “almost doubled”.

B3: shRNA targeted to caspase 1: lentiviral vector-encoded shRNA against human caspase 1, Open Biosystems (nucleic acid)
DNA: TGCTGTTGACAGTGAGCGCGCAATCTTTAACATGTTGAATTAGTGAAGCCACAGATGTAATTCAACATGTTAAAGATTGCATGCCTACTGCCTCGGA
modifications: the letters are possibly those of the target site
notes: lentiviral vector-encoded shRNA against human caspase 1, Open Biosystems
For B3, the “suppression / reduction in the frequency” value (IMR90 cells; OSNL lentiviral cocktail) was “no significant effect”.

B4: casp8-DN: dominant negative form of human caspase 8 (C360A), lentiviral vector encoded (protein, UniProt Q14790 1-479, looked up, variant C360A)
chain: MDFSRNLYDIGEQLDSEDLASLKFLSLDYIPQRKQEPIKDALMLFQRLQEKRMLEESNLSFLKELLFRINRLDLLITYLNTRKEEMERELQTPGRAQISAYRVMLYQISEEVSRSELRSFKFLLQEEISKCKLDDDMNLLDIFIEMEKRVILGEGKLDILKRVCAQINKSLLKIINDYEEFSKERSSSLEGSPDEFSNGEELCGVMTISDSPREQDSESQTLDKVYQMKSKPRGYCLIINNHNFAKAREKVPKLHSIRDRNGTHLDAGALTTTFEELHFEIKPHDDCTVEQIYEILKIYQLMDHSNMDCFICCILSHGDKGIIYGTDGQEAPIYELTSQFTGLKCPSLAGKPKVFFIQAAQGDNYQKGIPVETDSEEQPYLEMDLSSPQTRYIPDEADFLLGMATVNNCVSYRNPAEGTWYIQSLCQSLRERCPRGDDILTILTEVNYEVSNKDDKKNMGKQMPQPTFTLRKKLVFPSD
modifications: full-length lentiviral vector encoded
notes: dominant negative form of human caspase 8 (C360A), lentiviral vector encoded
With B4 the iPSC clones observed (IMR90 cells; OSNL lentiviral cocktail, after 25 days of culture, wild type IMR90 around 550 clones/5×10^5 cells) was “No iPSC clones were observed” and the “suppression of iPSC induction” value (IMR90 cells; transduced together with OSKM) was “over 95%”.

B5: dominant negative caspase 3 (C163A): dominant negative form of caspase 3 with single mutation C163A, lentiviral vector encoded (protein, UniProt P42574 1-277, looked up, variant C163A)
chain: MENTENSVDSKSIKNLEPKIIHGSESMDSGISLDNSYKMDYPEMGLCIIINNKNFHKSTGMTSRSGTDVDAANLRETFRNLKYEVRNKNDLTREEIVELMRDVSKEDHSKRSSFVCVLLSHGEEGIIFGTNGPVDLKKITNFFRGDRCRSLTGKPKLFIIQAARGTELDCGIETDSGVDDDMACHKIPVEADFLYAYSTAPGYYSWRNSKDGSWFIQSLCAMLKQYADKLEFMHILTRVNRKVATEFESFSFDATFHAKKQIPCIVSMLTKELYFYH
modifications: full-length lentiviral vector encoded
notes: dominant negative form of caspase 3 with single mutation C163A, lentiviral vector encoded
For B5, the “suppression / reduction in the frequency” value (IMR90 cells; OSNL lentiviral cocktail) was “about 80%”.
